# Laboratory results published in patent US20240252614A1 (Pfizer, published 2024).
# Experiments:
# [1] = target: T1, PIV1069 (PIV1); test: BLI, 56C stress;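 also: binding of thermally stressed PIV1 F mutant supernatant to mAb on AHC biosensors for 5 min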
# T1 construct: F113G, F114S, A466L, S473L, G134A
# Description: (§1) The OCTET HTX (Sartorius, Gottingen, Germany) instrument was used to evaluate the expression and conformational integrity for each mutant. All measurements were conducted at 30° C. temperature in 96-well black plates (Corning, Corning, NY) with a final volume of 240 μL per well at a constant agitation rate of 1000 RPM.
# (§2) Conformation integrity of PIV1 F protein mutants were evaluated by a thermal stress experiment. Crude cell culture supernatants were normalized based on the results of the titer quantitation and then incubated for 1 hour at room temperature and two higher temperatures. For the initial testing of PIV1 mutants, the two temperatures were 50° C. and 53° C. […] Anti-Human IgG Fc Capture (AHC) biosensors were first equilibrated in PB for before being dipped into more PB to establish the initial baseline. […] The mAb-bound biosensors were then dipped into the thermal stresses cell culture supernatants for 5 minutes.
# [2] = target: T2, PIV1070 (PIV1); test: BLI, 56C stress;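 also: binding of thermally stressed PIV1 F mutant supernatant to mAb on AHC biosensors for 5 min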
# T2 construct: F113G, F114S, A466I, S473I, G134A
# Description: as §1, §2
# [3] = target: T3, hMPV117 (hMPV B, UniProt Q6WB98 19-102); test: BLI, 63C stress
# T3 construct: T150C-R156C, A459P
# Description: (§3) Conformation integrity of hMPV B F protein mutants were evaluated by a thermal stress experiment. Crude cell culture supernatants were normalized based on the results of the titer quantitation and then incubated for 1 hour at room temperature and two higher temperatures. For the testing of hMPV B single mutants, the two temperatures were 53° C. and 56° C. After the incubation, the protein mutants were probed with prefusion specific monoclonal antibody hMPV-2 by OCTET HTX. Anti-Human IgG Fc Capture (AHC) biosensors were first equilibrated in PB before being dipped into more PB for to establish the initial baseline. Biosensors were incubated with hMPV-2 before being equilibrated in PB to establish the experimental baseline. The mAb-bound biosensors were then dipped into the thermal stresses cell culture supernatants for 5 minutes.
# [4] = target: T4, hMPV118 (hMPV B, UniProt Q6WB98 19-102); test: BLI, 63C stress
# T4 construct: T49I, T150C-R156C
# Description: as §3
# [5] = target: T5, hMPV133 (hMPV B, UniProt Q6WB98 19-102); test: BLI, 63C stress
# T5 construct: T49I, L141C-A161C, S149T, G239A, T411C-Q434C, A459P
# Description: as §3
# [6] = target: T6, hMPV142 (hMPV B, UniProt Q6WB98 19-102); test: BLI, 63C stress
# T6 construct: L141C-A161C, S149T, A459P
# Description: as §3
# [7] = target: T7, hMPV047 (hMPV A, UniProt Q6WB98 19-102); test: BLI, 50C stress, vs WT Control
# T7 construct: L141C-A159C
# Description: as §1
# (§4) Conformation integrity of hMPV A F protein mutants were evaluated by thermal stress experiments. Crude cell culture supernatants were normalized based on the results of the titer quantitation and then incubated for 1 hour at room temperature and two higher temperatures. […] Anti-Human IgG Fc Capture (AHC) biosensors were first equilibrated in PB before being dipped into more PB to establish the initial baseline. […] The mAb-bound biosensors were then dipped into the thermal stressed cell culture supernatants for 5 minutes. The kinetics analysis was done by OCTET data analysis software (version 12.0, Sartorius) based on curve fitting of the entire associate step.
# [8] = target: T8, hMPV048 (hMPV A, UniProt Q6WB98 19-102); test: BLI, 50C stress, vs WT Control
# T8 construct: L141C-A161C
# Description: as §1, §4
# [9] = target: T9, hMPV049 (hMPV A, UniProt Q6WB98 19-102); test: BLI, 50C stress, vs WT Control
# T9 construct: E146C-T160C
# Description: as §1, §4
# [10] = target: T10, hMPV050 (hMPV A, UniProt Q6WB98 19-102); test: BLI, 50C stress, vs WT Control
# T10 construct: V148C-L158C
# Description: as §1, §4
# [11] = target: T11, hMPV052 (hMPV A, UniProt Q6WB98 19-102); test: BLI, 50C stress, vs WT Control
# T11 construct: L66P
# Description: as §1, §4
# [12] = target: T12, hMPV053 (hMPV A, UniProt Q6WB98 19-102); test: BLI, 50C stress, vs WT Control
# T12 construct: L110P
# Description: as §1, §4
# [13] = target: T13, hMPV054 (hMPV A, UniProt Q6WB98 19-102); test: BLI, 50C stress, vs WT Control
# T13 construct: S132P
# Description: as §1, §4
# [14] = target: T14, hMPV055 (hMPV A, UniProt Q6WB98 19-102); test: BLI, 50C stress, vs WT Control
# T14 construct: N145P
# Description: as §1, §4
# [15] = target: T15, hMPV058 (hMPV A, UniProt Q6WB98 19-102); test: BLI, 50C stress, vs WT Control
# T15 construct: L187P
# Description: as §1, §4
# [16] = target: T16, hMPV059 (hMPV A, UniProt Q6WB98 19-102); test: BLI, 50C stress, vs WT Control
# T16 construct: V449P
# Description: as §1, §4
# [17] = target: T17, hMPV060 (hMPV A, UniProt Q6WB98 19-102); test: BLI, 50C stress, vs WT Control
# T17 construct: A459P
# Description: as §1, §4
# [18] = target: T18, hMPV061 (hMPV A, UniProt Q6WB98 19-102); test: BLI, 50C stress, vs WT Control
# T18 construct: G106A
# Description: as §1, §4
# [19] = target: T19, hMPV062 (hMPV A, UniProt Q6WB98 19-102); test: BLI, 50C stress, vs WT Control
# T19 construct: G121A
# Description: as §1, §4
# [20] = target: T20, hMPV063 (hMPV A, UniProt Q6WB98 19-102); test: BLI, 50C stress, vs WT Control
# T20 construct: G239A
# Description: as §1, §4
# [21] = target: T21, hMPV066 (hMPV A, UniProt Q6WB98 19-102); test: BLI, 50C stress, vs WT Control
# T21 construct: T49I
# Description: as §1, §4
# [22] = target: T22, hMPV067 (hMPV A, UniProt Q6WB98 19-102); test: BLI, 50C stress, vs WT Control
# T22 construct: S149T
# Description: as §1, §4
# [23] = target: T23, hMPV068 (hMPV A, UniProt Q6WB98 19-102); test: BLI, 50C stress, vs WT Control
# T23 construct: A159V
# Description: as §1, §4
# [24] = target: T24, hMPV069 (hMPV A, UniProt Q6WB98 19-102); test: BLI, 50C stress, vs WT Control
# T24 construct: S291I
# Description: as §1, §4
# [25] = target: T25, hMPV071 (hMPV A, UniProt Q6WB98 19-102); test: BLI, 50C stress, vs WT Control
# T25 construct: T365I
# Description: as §1, §4
# [26] = target: T26, hMPV075 (hMPV A, UniProt Q6WB98 19-102); test: BLI, 50C stress, vs WT Control
# T26 construct: L473F
# Description: as §1, §4
# [27] = target: T27, hMPV077 (hMPV A, UniProt Q6WB98 19-102); test: BLI, 50C stress, vs WT Control
# T27 construct: Q476C, S477C
# Description: as §1, §4
# [28] = target: hMPV A F WT Control (hMPV A, UniProt Q6WB98 19-102); test: BLI, 50C stress, vs WT Control
# Description: as §1, §4
# [29] = target: T28, hMPV043 (hMPV A, UniProt Q6WB98 19-102); test: BLI, 50C stress, vs WT Control
# T28 construct: G366C-D454C
# Description: as §1, §4
# [30] = target: T29, hMPV044 (hMPV A, UniProt Q6WB98 19-102); test: BLI, 50C stress, vs WT Control
# T29 construct: T411C-Q434C
# Description: as §1, §4
# [31] = target: T30, hMPV045 (hMPV A, UniProt Q6WB98 19-102); test: BLI, 50C stress, vs WT Control
# T30 construct: I137C-A159C
# Description: as §1, §4
# [32] = target: T31, hMPV046 (hMPV A, UniProt Q6WB98 19-102); test: BLI, 50C stress, vs WT Control
# T31 construct: A140C-S149C
# Description: as §1, §4
binder,measurement,setting,value
"PIV1-8 mAb (antibody, V domains shown, human IgG1; also called hPIV1-8 mAb; hPIV1-8) VH: QVQLVQSGAEVKKPGSSVKVSCEASGGTFSNYVISWVRQAPGQGLEWMGGIIPVFATAKYAQKFQGRVTIIADQSTNTAYLELSSLRSDDTAVYFCASVDSGGTWWDAFAIWGQGTMVTVSS VL: QAVVTQPRSVSGSPGQAVTISCTGTSSDVGGYNYVSWYQHHPGKAPKLIIYDVTKRPSGVPDRFSGSKSGNTASLTISGLQTEYEADYYCCSYAGSYTLVFGGGTKLTVLG",Response Shift,[1],0.819 nm
same,Response Shift,[2],0.859 nm
"hMPV-2 mAb (antibody, V domains shown, human IgG1) VH: QVQLQQSGAEVKKPGASVKVSCKASGYTFTSYGISWVRQAPGQGLEWMGWISGYNGNTNYAQTFQGTFTMTTDTSTSTAYMELRRLRSGDTAVYYCARDRYYASGSYNGMDVWGQGTTVTVSS VL: QSALTQPPSASGAPGQRVTVSCSGSSSNVGSSSVYWYQQLPGTAPKLLIYRNNQRPSGVPDRFSGSKSGTSASLAISGLRSEDEADYYCAAWDDSLSGWVFGGGTKLTVLG",Response Shift,[3],0 nm
same,Response Shift,[4],0.028 nm
same,Response Shift,[5],0.62 nm
same,Response Shift,[6],0.054 nm
same,Fold change vs WT,[7],-0.1 fold
same,Fold change vs WT,[8],1.5 fold
same,Fold change vs WT,[9],1.9 fold
same,Fold change vs WT,[10],0.5 fold
same,Fold change vs WT,[11],2.2 fold
same,Fold change vs WT,[12],2 fold
same,Fold change vs WT,[13],1.6 fold
same,Fold change vs WT,[14],0.7 fold
same,Fold change vs WT,[15],1.7 fold
same,Fold change vs WT,[16],1.6 fold
same,Fold change vs WT,[17],2.5 fold
same,Fold change vs WT,[18],2 fold
same,Fold change vs WT,[19],1.6 fold
same,Fold change vs WT,[20],2.4 fold
same,Fold change vs WT,[21],2.6 fold
same,Fold change vs WT,[22],2.3 fold
same,Fold change vs WT,[23],1.6 fold
same,Fold change vs WT,[24],1.6 fold
same,Fold change vs WT,[25],2.4 fold
same,Fold change vs WT,[26],2.3 fold
same,Fold change vs WT,[27],2.2 fold
same,Fold change vs WT,[28],1 fold
same,Fold change vs WT,[29],2 fold
same,Fold change vs WT,[30],2.6 fold
same,Fold change vs WT,[31],0.4 fold
same,Fold change vs WT,[32],1.7 fold
